From PMC8683085, “Serine ADP-ribosylation marks nucleosomes for ALC1-dependent chromatin remodeling” (eLife, 2021) come the findings set out here.

This assay concerns the target unmodified nucleosome (UniProt P68431).

For “ALC1 (full-length, 6xHis-1xFLAG-ALC1) (from UniProt Q86WJ1 1-897) (enzyme)”, the ALC1 nucleosome remodeling rate constant (REA assay) is less than 0.0003 min⁻¹.
